According to the DeepSol protein solubility set:

Test: soluble on expression in E. coli; label from the status in PepcDB or PDB records

Sequence	soluble on expression in E. coli
MAHHHHHHSLTQQYLTVTALTKYLKRKFDADPYLGRVYLTGEISNFRFRANAHQYFSLKDDHAKISAIMFKSAFQKLKFQPKEGMKVMVVGRISLYENSGSYQIYIEHMEPDGVGALYQALAELREKLGKEGLFEGPKQQLPRYPKRIAVVTSPSGAVIRDIITTVKRRYPIAQLVLFPTLVQGEQAADDIVRNIQRADAQSDFDTMIIGRGGGSIEDLWPFNEEKVARAIHAATTPIISSVGHETDVTIADMVADVRAATPTAAAELAVPVLNEELLRISERRSRLEQSFLYLLQQRTERFQRLQNSYVFKQPERLYEGQTIKLDRMTQRLFQAMTTIHHQKQRQAQGIIAQLQQQTPKGQLRESQQQLAFLQRNLQTQMTQLFLNKQKQFTSAVQQLDLLSPLKIMGRGYSYTTKEDRVVKTVTELQPADQLTIHYADGTVQANVETITAKKEEFEG	soluble
MSLYVSKLFTSQQWRELKLISYVTENADAIGVKDKELSKALNISMLTLQTCLTNMQFMKEVGGITYKNGYITIWYHQHCGLQEVYQKALRHSQSFKLLETLFFRDFNSLEELAEELFVSLSTLKRLIKKTNAYLTHTFGITILTSPVQVSGDEHQIRLFYLKYFSEAYKISEWPFGEMLNLKNCERLLSLMIKEVDVRVNFTLFQHLKILSSVNLIRYYKGYSAVYDNKKTSHRFSQLIQSSLEIQDLSRLFYLKFGLYLDETTIAEMFSNHVNDQLEIGYAFDSIKQDSPTGCRKVTNWVHLLDELEIRLNLSVTNKYEVAVILHNTTVLKEEDITANYLFFDYKKSYLNFYKQEHPHLYKAFVAGVEKLMRSEKEPISKELTNQLIYAFFITWENSFLKVNQKDEKIRLLVIERSFNSVGNFLKKYIGEFFSITNFNELDALTIDLEEIEKQYDVIVTDVMVGKSDELEIFFFYKMIPEAIIDKLNCVFKHQLCRQEGHHHHHH	not soluble
MLLRKGTVYVLVIRADLVNAMVAHARRDHPDEACGVLAGPEGSDRPERHIPMTNAERSPTFYRLDSGEQLKVWRAMEDADEVPVVIYHSHTATEAYPSRTDVKLATEPDAHYVLVSTRDPHRHELRSYRIVDGAVTEEPVNVVEQYLEHHHHHH	not soluble
MSLKINGEVTFKNNQVNYDENAITNLKLSGSDAKKENIKEVYMDLTNVGGPNKVLMDLNLLKDNSLSQSIGINDNVVAGEKEIPVTIVDKNGENHKAKGILTVKSKVGVGPLDFGFDESRIYFTVTDRFFNGDKNNDDPHGNNYDKKNPYTYHGGDLKGLTDKISYLKELGINTIWITPIVENTDFNQMFSQGKTQYSCHGYWAKDFEKLDPHLGTMDDLKTLIDTAHDSGIKIMVDVVLNHAGYGMKNKDNSGANNSPTEEDIAKFKGMFRENPGNDFITQESAGLPDFKTEDPEVREKLIEWQTGWIERSKTEKGNTIDYFRVDTVKHVDNTTWKAFKNKLTEINPSFKTIGEYFGADINNDGGQLQNGQMDALLDFGYKGKARDFVNGNIEGTSAYLDDRASKISNTNLMGQFLSSHDEDGFLKTVGDDLGKQMLAASLQITDKGIPVIYYGEELGMSGWNGFEQGDQNRYDMDFERLNDPKYKKVHDHYEKLLNIRKEYSKIFSKGNRKTIAGNNEEGYSVVLRSYNGKEITPMNLSENNEEKNITNGQNLFVVLNTKNEDKDISFKTNFKEGEKVKDLYSGNEYSIGKDGKVTVKVPSKEEGGTAILALKNREGHHHHHH	soluble
MDNLLIQVTGKKRVVLFSPRDAQYLYLKGTKSEVLNIDNPDLAKYPLFSKARRYECSLEAGDVLFIPALWFHNVISEEFGVGVNIFWKHLPSECYDKTDTYGNKDPTAASRAAQILDRALKTLAELPEEYRDFYARRMVLHIQDKAYSKNSE	not soluble
GNIATTPGDVVYRNRMMELIQYKPATDTVHEIPIVLFPPWINKFYILDLKAQNSFIKWVTEQGFTIFVVSWINPDASYADVGMEDYIQDGFLTAIDEVKKICKVKQVNAVGYCIAGTTLSLTLSLMKQTGDKSVKSATFFTALTDFSDQGEFTPFLQDDFIDGIEEEVTREGVLRSWIMARTFSYLRSNDLIYKPAIQSYMLGETPPAFDLLYWNGDGANLPAKMAVQYLRGLCQRNEFAGEGFDLMGHTLHVRDVDVPVMAITCETDHIAAWKDCYRGVQKMGSRSKTFVVSESGHIAGIVNPPSKKKYGHYTNPDLKDD	not soluble
MVSFVNCRSQIKTNMQEQNNPLLCNPESGFCEMPSIKPDTAHQADLKSDKKPVKVIYYTDPICSSCWGIEPQLRKLKLEYGTSIDIEYRMGGLLPDWSYNSGGISKPSDVAHHWDEVSVYYDMPIDGGVWLEDPLPSSYPPSIAFKAVQIQSTERAILFLREIREMVFLQKKNIAKWEHLEQAAKNTGVNIEQFKKDYEGRAKDLFYADLKLARDLGVHGFPTMIFSDSTGKNETVYGYKPYAVFENTIAGLYPSVQKYTYDKSIAAVFSTFHSLTAKEFSELTGVARNQSEQMLDEYVKQGMLQKWTTKNGSLWSLKK	not soluble
MAHHHHHHMSSVLKADVKEYIPSWANKRSSGVNPAATSTNKNGFATSVPTSNVMTTHSGCTGINAQNFTSSPRAAAGLPLCSPTTALRLPTRMSPMHAPFPSVSISMNPNATDFVPHLTGANSLAPLPTSTADLAEEKERQQKQESHLSSSMKWTTTSTRKNITQPALPLAVKANFTPTFAPIYVEKTEEEILEISKRSSLKVGAAAFVPRRTLNRVMIAKPSPFSLTPATGEMTLGDLWCLFYLPAGLGECIRENTYDPTLVFRVDSVATFWKVFNNIPQPTEMKIGTLYFFRDGINPKWEDPGNRDGGILKMKLDSHCINDAWVYLLCRTIGESWSKSVRDTVNGVALKARERAYLLEVWVTEQSAELMMDISELLRPLLGDVFSVFYAPHSVTQERAAAAALAEKKRSRNNRRRW	not soluble
MSLGKKELIGFQVGVRESTQSWHELLVEAKTRGLKIAPEIAVGDGALGFWKALDEVFPATRHQRCWVHKTANILNKVAVSVQASMKKDLREVYLASNRASAEVAIDVFAEKYGAKYDKAVECLTKDRDAMLAFYEFPAEHWDHLRTTNPIESVFATVRHRTVRTKGSLSSTTAKLMVFKLLCAASKTWRRLKGTNQLPKVSAGVRFENGIEEGHHHHHH	not soluble
QDWLTFQKKHITNTRDVDCDNIMSTNLFHCKDKNTFIYSRPEPVKAICKGIIASKNVLTTSEFYLSDCNVTSRPCKYKLKKSTNKFCVNCANQAPVHFVGVGSC	soluble
MEKKVQIAVYENENFKRVAEIVKKKSIATVCEEALCPNIMECWGSGTATFMIMGSICTRGCRFCYVLKGKPSPLDDEEPKRVAEAVKEMELDYVVITSVDRDDLSDGGAQHFANVVKTVKELNPGIIVEVLTPDFRGNIDAVKKVIDAGVDVFAHNVETVRRLTPIVRDPRASYEQSLNVLKYAENVIKKSSILLGLGETWDEIVETMRDLRSVGVSILVLSQYMRPSRKQLEVKKRYTLEEFKELEEIAYSMGFSAVISLPLARTSYKAKEAYFRAIENAKNHS	not soluble
MSLEISKQTSDLLLSLEKKKGTLPKFSVLRSIPRNRIIYGAPGTGKSNYLEREVGKIFGDNPYVFTRVTFFPGYTYGQFIGAYKPVPIYKKLSGEEEIFSSNFRDKMENFEPMIDYQFVPGPFIDVLIKALKNRYTNFILIIEEINRANAASVFGDIFQLLDRNKNGESDYPVTFGPDIMNYLARNGIKDEMIKLPSNFFIWATMNNADQGVLPLDTAFKRRWSFEYLELEKYRKAVDSWKLSLRYKGHNKVIMWNDFRDIINKRLKGKVPEDKLLGPFFLKESELWNQNVFKNKLLYYLKEDVFKHNPTIDFLNASTFSELIEKYDGSDNIFTFDIDDSSFVSDEGGSHHHHHH	soluble
MSLRKVIGIGETILDIIFRNDQPSAAVPGGSVFNGIVSLGRMGVNVCFISETGNDHVGNIILQFMRDNHIPTDHVNVFPDGKSPVSLAFLNEHSDAEYIFYKDYPKQRLDVLFPSINEDDIIVIGSYYALNPVLRDKILELLDIAKEKRAIVYYDPNFRSSHKNEAMKLAPTIIENLEYADIVRGSLEDFYYMYGIKDVEKIYKDKIKFYCPLFLCTAGAERISLRTNAISKEYPVAPLEAVSTIGAGDNFNAGLIYGMLKYDVRYRDLQHLSEETWDKVIQCGQDFAAEVCKSFNNSISGEFAANYREGHHHHHH	soluble
GVTGVTTGFTDLDKKTAGLQPSDLIIVAARPSMGKTTFAMNLCENAAMASEKPVLVFSLEMPAEQIMMRMIASLARVDQTKIRTGQNLDEIEWNKIASVVGMFKQKNNLFIDDSSGLTPTDVRSRARRVYRENGGLSMIMVDYLQLMRAPAFSDNRTLEIAEISRSLKALAKELQVPVVALSQLNRTLEQRGDKRPVNSDL	not soluble
MIFRKFLNFLKPYKMRTDPIIFVIGCTGTGKSDLGVAIAKKYGGEVISVDSMQFYKGLDIATNKITEEESEGIQHHMMSFLNPSESSSYNVHSFREVTLDLIKKIRARSKIPVIVGGTTYYAESVLYENNLIETNTSDDVDSKSRTSSESSSEDTEEGISNQELWDELKKIDEKSALLLHPNNRYRVQRALQIFRETGIRKSELVEKQKSDETVDLGGRLRFDNSLVIFMDATPEVLEERLDGRVDKMIKLGLKNELIEFYNEHAEYINHSKYGVMQCIGLKEFVPWLNLDPSERDTLNGDKLFKQGCDDVKLHTRQYARRQRRWYRSRLLKRSDGDRKMASTKMLDTSDKYRIISDGMDIVDQWMNGIDLFEDISTDTNPILKGSDANILLNCEICNISMTGKDNWQKHIDGKKHKHHAKQKKLAETRT	not soluble
MSLSTDDTLWREFLQVWPLERLREMTLAEYTTAGDKDCFVYWLEFRLVDYGSIAGGSAFKFAIFSRKETGAREGDTSLAYDDRYGWYRRFGTSPEEAFQTIRGHVVAVAEAARDGRLDEIDNSPLGAAYRWKIAFHYQPLRNPSTPCVYVRKPLLHFLGLSAADTTTPQSELYQALARLRQADESIFVFSERLWKDWVADTPFVVKLSEGAIKHGYLPVNLISAPFPETMYGGKTPNEAADVAHFRTDTGLEFDTDLRVSSPGSARLRHRLGGYFEDIGAAAGDLITLTQDGDGTYLLSSKLAVHAIGPTASAATITARASVKEAAAVRPPLNQILFGPPGTGKTYEAIEKALEILDPSFLLQLGDDESNERRRALKRRYDELAKEGLVQFVTFHQSFSYENFVEGLSASSDPDTKQVRYEVEDGVFKELCESARTRLVRRSDDAPLELSGRRIWKLSLGDSITEGHIFEECMEKGLALMGFGNNADFSQCQSREDIQKMFAASGEPLSLGAYPITAIKTFVCQMKLGDLIVVSEGNLKFRAIGEITGDYQLLPRDSDTYSQARPVRWLRGYKPALPYGALMENRFSQMTVYELRAGSIDHDKFRELLKSECIATGADRPHVLIIDEINRGNVSRIFGELITLIEPSKRSGAAEALEVLLPYSKDPFSVPDNVYLIGTMNTADRSLAGLDIALRRRFDFVEMAPRPDKLTGVKVAEIDISAVLETMNRRIEVLLDREHRLGHAYFMSLENSNDLSRLSNIFRQQIIPLLQEYFFEDWQRIAWILNDHRKDERFRFIVPAPYSVDSLFGDTGQVAQDSKAWRMNEEAFHKPQSYLGIVGDGKEGHHHHHH	not soluble
MGSDKIHHHHHHMPVIKFSYGDSMSTPLDSDLLRTFLAVADTGNLTRAADTVRRTQSAVSMQIRKLEELIGSALFERHSRGVILTDDGRRLADNARRIVSLLDDTAAAMRSPALEGSVRIGISEEYVNSTLPKALGAFAAIHPGVEVTVRQETSMANSAALAAGELDIAVVFEPGGRSRNEVLMVNPTVWATCDQHGAHERRPVPIATYTYAEGGWCDELARRSLQSRGIESRIAYVSRTSGGLIAALISGLAIAPLSRTAIPAGCRELTEEDGFGIIDMTNVVLRTRRGNRSPTVDAMADAIRRAFRAPAEKEKEEVRSTTTDG	not soluble
